Values quoted from earlier work as cited in patent US20180071407A9, “SYSTEMS AND METHODS FOR INTRA-TARGET MICRODOSING (ITM)” (priority 2013, published 2018).

Conditions: known value used to choose sampling time points; cited from earlier work

insulin
half-life of insulin: 4 to 6 min
